This is an account of results in US20190040368.

This data set concerns the target T1, recombinant human iduronate-2 sulfatase (rhIDS).
T1 chain: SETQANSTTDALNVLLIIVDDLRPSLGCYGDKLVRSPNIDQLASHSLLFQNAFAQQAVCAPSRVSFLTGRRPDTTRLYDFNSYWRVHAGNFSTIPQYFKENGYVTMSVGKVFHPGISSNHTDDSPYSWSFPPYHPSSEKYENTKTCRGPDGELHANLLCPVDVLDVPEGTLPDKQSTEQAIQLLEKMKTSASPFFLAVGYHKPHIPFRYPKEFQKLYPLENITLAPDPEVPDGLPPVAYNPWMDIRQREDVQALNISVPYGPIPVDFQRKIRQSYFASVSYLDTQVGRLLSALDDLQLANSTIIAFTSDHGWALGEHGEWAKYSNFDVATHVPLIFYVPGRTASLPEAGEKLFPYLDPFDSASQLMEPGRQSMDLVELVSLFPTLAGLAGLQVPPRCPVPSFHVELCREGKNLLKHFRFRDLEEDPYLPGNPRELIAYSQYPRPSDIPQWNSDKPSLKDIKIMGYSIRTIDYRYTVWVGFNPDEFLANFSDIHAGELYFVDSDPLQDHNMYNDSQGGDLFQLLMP

B1: Human FGE fusion protein (Lip2pre-hFGE-HDEL) (protein)
chain: SQEAGTGAGAGSLAGSCGCGTPQRPGAHGSSAAAHRYSREANAPGPVPGERQLAHSKMVPIPAGVFTMGTDDPQIKQDGEAPARRVTIDAFYMDAYEVSNTEFEKFVNSTGYLTEAEKFGDSFVFEGMLSEQVKTNIQQAVAAAPWWLPVKGANWRHPEGPDSTILHRPDHPVLHVSWNDAVAYCTWAGKRLPTEAEWEYSCRGGLHNRLFPWGNKLQPKGQHYANIWQGEFPVTNTGEDGFQGTAPVDAFPPNGYGLYNIVGNAWEWTSDWWTVHHSVEETLNPKGPPSGKDRVKKGGSYMCHRSYCYRYRCAARSQNTPDSSASNLGFRCAADRLPTMDHDEL
With B1, the “active rhIDS (4MU fluorogenic activity assay against sandwich ELISA), co-expression in Y. lipolytica” value is “All Y. lipolytica strains co-expressing rFGE with rhIDS resulted in the expression of active rhIDS”.

B2: Lip2pre-6xHis-BtFGE-WBP1 fusion construct (protein)
chain: MKLSTILFTACATLAAAHHHHHHAGGEEAGPEAGAPSLVGSCGCGNPQRPGAQGSSAAAHRYSREANAPGSVPGGRPSPPTKMVPIPAGVFTMGTDDPQIKQDGEAPARRVAIDAFYMDAYEVSNAEFEKFVNSTGYLTEAEKFGDSFVFEGMLSEQVKSDIQQAVAAAPWWLPVKGANWRHPEGPDSTVLHRPDHPVLHVSWNDAVAYCTWAGKRLPTEAEWEYSCRGGLQNRLFPWGNKLQPKGQHYANIWQGEFPVTNTGEDGFRGTAPVDAFPPNGYGLYNIVGNAWEWTSDWWTVHHSAEETINPKGPPSGKDRVKKGGSYMCHKSYCYRYRCAARSQNTPDSSASNLGFRCAADHLPTTGADHLPTTGFTMLNPYYRLTLEQTGTTNFSAIYSTTFKIPDQHGVFTFNLDYKRPGYTFIEEKTRATIRHTANDEWPRSWEITNSWVYLTSAVMVVIAWFLFVVFYLFVGKADKEAVHKQ
B2: the % active rhIDS (4MU activity against ELISA); 1 copy rhIDS, 2 copy BtFGE-WBPI (POX/Hp4d) is 124%.

B3: Chimeric Lip2pre-BtFGE-HpFGE-6xHis-HDEL fusion construct (protein)
chain: MKLSTILFTACATLAAAAGGEEAGPEAGAPSLVGSCGCGNPQRPGAQGSSAAAHRYSREANAPGSVPGGRPSPPTKMVPIPAGVFTMGTDKAKIYLDGESPSRLVTLDPYYFDVYEVSNSEFELFVNTTSYITEAEKFGDSFVLEARISEEVKKDISQVVAAAPWWLPVKGAEWRHPEGPDSSISSRMDHPVTHISWNDATAYCQWAGKRLPTEAEWENAARGGLNNRLFPWGNKLMPKDHHRVNIWQGEFPKVNTAEDGYEGTCPVTAFEPNGYGLYNTVGNAWEWVADWWTTVHSPESQNNPVGPDEGTDKVKKGGSYMCHISYCYRYRCEARSQNSPDSSACNLGFRCAATNLPEDIPCSNCNDSTPHHHHHHHDEL
For the protein B3, the % active rhIDS (4MU activity against ELISA); 1 copy rhIDS, 2 copy ChFGE (POX/Hp4d)-20° C. was 0% and the % active rhIDS (4MU activity against ELISA); 1 copy rhIDS, 2 copy ChFGE (POX/Hp4d)-28° C. was 0%.

B4: Hemicentrotus pulcherrimus FGE fusion protein (Lip2pre-HpFGE-6HIS-HDEL) (protein)
chain: ENEDINQNISPTQSHTTATTEEELAEARGEEIDSDPTSEGSGAGEGCGCGSSALNRNHDEDALGLALEENLHDHVQEGAALKYSREANDPISMDHPEANVGAFPRTNQMNFIEGGTFRMGTDKAKIYLDGESPSRLVTLDPYYFDVYEVSNSEFELFVNTTSYITEAEKFGDSFVLEARISEEVKKDISQVVAAAPWWLPVKGAEWRHPEGPDSSISSRMDHPVTHISWNDATAYCQWAGKRLPTEAEWENAARGGLNNRLFPWGNKLMPKDHHRVNIWQGEFPKVNTAEDGYEGTCPVTAFEPNGYGLYNTVGNAWEWVADWWTTVHSPESQNNPVGPDEGTDKVKKGGSYMCHISYCYRYRCEARSQNSPDSSACNLGFRCAATNLPEDIPCSNCNDSTPHHHHHHHDEL
Regarding B4, the % FGly conversion (nano-LC MS); strain T148 (OXYY1801; HpFGE) turned out to be 8.1%; the % FGly conversion (nano-LC MS); strain T148 (OXYY1801; HpFGE) (20° C.) is 68.1%; the % FGly conversion (nano-LC MS); strain T148 (OXYY1801; HpFGE), duplicate came out at 3.72%; the % FGly conversion-re-analyzed samples; DG29U7#7, OXYY1801; HpFGE worked out at 19.2%. Also, the % FGly conversion-re-analyzed samples; DG33U1#6, OXYY1801, HpFGE is 8.3%; the % FGly conversion-re-analyzed samples; DG33U3#6, OXYY1801; HpFGE (20° C.) turned out to be 84.5%; the “active rhIDS (4MU fluorogenic activity assay against sandwich ELISA), co-expression in Y. lipolytica” value was “All Y. lipolytica strains co-expressing rFGE with rhIDS resulted in the expression of active rhIDS”.
